We go through 3 molecules from publication PMC8043444 (bioRxiv, 2021).

Assay [1] concerns the target SARS-CoV-2 HexaPro Spike protein for cryoEM analysis (SARS-CoV-2 (Wuhan-Hu-1), UniProt P0DTC2, stabilised). In words: cryo-EM structure.
In assay [2] the target is yeast-displayed unmutated SARS-CoV-2 RBD (Wuhan-Hu-1) (SARS-CoV-2, UniProt P0DTC2). In words: flow cytometry on cells. On the technique in general: A flow cytometer gives signals particle by particle.

B1: S2D106 Fab (Fab, V domains shown)
VH: EVQLVQSGAEVKKPGSSVKVSCKASGGPFSSSAISWVRQAPGQGLEWMGGIIPMVGTANYAQKFQGRVTITADESTSTAYMELSSLRSEDTAVYYCARDSRYCSGGSCYSVWFDPWGQGTLVTVSS
VL: not shown
In the case of B1, the binding result in assay [1] is given as “binds”.

B2: S2H97 Fab (Fab, V domains shown)
VH: QVRLVQSGAEVKKSGESLKISCKGSGYSFTSYWIGWVRQMPGKGLEWMGIIYPGDSDTRYSPSFQGQVTISADKSISTVYLQWSSLKASDTAMYYCARQWSHYTYDYYYWGQGTLVTISS
VL: QSVLTQPASVSGSPGQSITISCTGISSDVGGYNSVSWYQQHPGKAPKLMIYDVTNRPSGVSNRFSGSKSGNTASLTISGLQAEDEADYYCSSYTSSSTPPYVFGTGTKVSVL
Consider B2, for which the binding result in assay [1] was “binds”.

B3: S2H14 IgG1 (LS) (antibody, V domains shown)
VH: not shown
VL: NFMLTQPHSVSESPGKTVTISCTRSSGSIASNYVQWYQQRPGSSPTTVIYEDNQRPSGVPDRFSGSIDSSSNSASLTISGLKTEDEADYYCQSYDSSNQVFGGGTKLTVL
Regarding B3, in assay [2], the binding result is “binds”.
